Measurements: patent publication US7935785B2, “Selective substrates for matrix metalloproteinases” (Sanford-Burnham Medical Research Institute, priority 2001, dated 2011)

B1: Eph B1-Fc fusion protein: extracellular domain of rat EphB1 (residues 1-538) fused to Fc region of human IgG, R&D Systems (protein)
chain: MEETLMDTRTATAELGWTANPASGWEEVSGYDENLNTIRTYQVCNVFEPNQNNWLLTTFINRRGAHRIYTEMRFTVRDCSSLPNVPGSCKETFNLYYYETDSVIATKKSAFWSEAPYLKVDTIAADESFSQVDFGGRLMKVNTEVRSFGPLTRNGFYLAFQDYGACMSLLSVRVFFKKCPSIVQNFAVFPETMTGAESTSLVIARGTCIPNAEEVDVPIKLYCNGDGEWMVPIGRCTCKAGYEPENSVACKACPAGTFKASQEAEGCSHCPSNSRSPSEASPICTCRTGYYRADFDPPEVACTSVPSGPRNVISIVNETSIILEWHPPRETGGRDDVTYNIICKKCRADRRSCSRCDDNVEFVPRQLGLTECRVSISSLWAHTPYTFDIQAINGVSSKSPFPPQHVSVNITTNQAAPSTVPIMHQVSATMRSITLSWPQPEQPNGIILDYEIRYYEKEHNEFNSSMARSQTNTARIDGLRPGMVYVVQVRARTVAGYGKFSGKMCFQTLTDDDYKSELREQ
modifications: left off: small tags and cut ends; a dimerising Fc or GST
notes: extracellular domain of rat EphB1 (residues 1-538) fused to Fc region of human IgG, R&D Systems

Assays:
Format in all cases: biochemical
MMP-9 [1] = target: T1, MMP-9 (Homo sapiens, UniProt P14780); assay: Peptide substrate hydrolysis kinetics, fluorescamine incorporation assay (kcat, Km, kcat/Km, selectivity ratio); conditions: for selectivity ratio: kcat/Km for MMP-9 divided by kcat/Km for MMP-1 / selectivity ratio: kcat/Km for MMP-9 divided by kcat/Km for MMP-7: MMP-9 substrates
T1 construct: a recombinant form of the catalytic domain of MMP-9 expressed in HEK 293 cells; made in house; host or cells: HEK 293 cells
Experimental: (§1) In order to measure the selectivity of individual substrates for one metalloproteinase over another, representative polypeptides from the selected phage were synthesized and their rate of hydrolysis by several matrix metalloproteinases was determined. In some cases these representative polypeptide sequences contained an amino-terminal serine (S) and glycine (G) and/or a carboxyl-terminal threonine (T) and alanine (A) since these residues were used in the construction of the phage substrate library, although one skilled in the art will understand that other amino acid residues could be substituted at these positions. The kinetic parameters of substrate hydrolysis were measured using a fluorescamine incorporation assay that has been described previously (Ding et al., PNAS, 92:7627-7631 (1995); Coombs et al., Chem. and Biol. 5:475-488 (1998); Fields et al., J. Biol. Chem., 262:6221-6226 (1987); Netzel-Arnett., et al. J. Biol. Chem., 266:6747-6755 (1991)).
(§2) Briefly, individual metalloproteinases were incubated with the individual polypeptide substrates at concentrations ranging from 100-800 µM. At selected time points the reactions were stopped by the addition of 1,10 phenanthroline. Polypeptide hydrolysis was determined by the addition of fluorescamine followed by detection at an excitation wavelength of 355 nm and an emission wavelength of 460 nm. The data were transformed to double reciprocal plots (1/[S] vs 1/vi) to determine Km and kcat. In some cases Km and kcat could not be determined individually, but the specificity constant, kcat/Km, was derived by the equation: […] (Netzel-Arnett, supra, and Zumla et al., J. Immunol. Methods 149:69-76 (1992)).
(§3) The selectivity ratio of each polypeptide substrate was calculated by dividing the kcat/Km value for one matrix metalloproteinase by the kcat/Km value for the other matrix metalloproteinases that were tested. […] In many cases the polypeptide substrates are selective for one matrix metalloproteinase compared to several other matrix metalloproteinases.
(§4) The kinetic parameters of substrate hydrolysis were measured using a fluorescamine incorporation assay that has been previously described (Ding et al., PNAS, 92:7627-7631 (1995); Coombs et al., Chem. and Biol. 5:475-488 (1998); Fields et al., J. Biol. Chem., 262:6221-6226 (1987); Netzel-Arnett., et al. J. Biol. Chem., 266:6747-6755 (1991)). Briefly, MMP-2, MMP-9, MMP-7, or MMP-13 were incubated with individual peptide substrates at concentrations ranging from 100-800 μM in 50 mM Tris, pH 7.5, 100 mM NaCl, 10 mM CaCl2, 50 μM ZnCl2. At selected time points the reactions were stopped by the addition of 1,10-phenanthroline. Peptide hydrolysis was determined by the addition of fluorescamine followed by detection at λex 355 nm and λem 460 nm. The data were transformed to double reciprocal plots (1/[S] vs 1/vj) to determine Km and kcat. […] A double recipricol plot of the hydrolysis of peptide B 74 is shown as a representative plot (FIG. 4).
The Michaelis constant (Km) and first-order rate constant of substrate peptide turnover (kcat) were measured by incubating a range of each peptide with MMP-9. Peptide hydrolysis was measured by incorporation of fluorescamine onto newly formed amino-termini as previously described. From these measurements, kcat and Km were derived for each peptide using double-reciprocal plots of 1/[S] vs 1/vj. Among the peptides, the kcat values ranged from 9 s^−1 to 703 and Km values were generally in the high micromolar to low millimolar range.

MT1-MMP = MT1-MMP (Homo sapiens, UniProt P50281); assay: Peptide substrate hydrolysis kinetics, selectivity between MT1-MMP and MMP-9; conditions: MT1-MMP substrates
Experimental: as §1, §2, §3
Polypeptide substrates for Membrane type-Matrix Metalloproteinase 1 (MT1-MMP) were identified using substrate phage display as described for MMP-2 and MMP-9. Synthetic peptides that are analogous to the phage sequences were used to quantitate the level of selectivity between MT1-MMP and MMP-9 (see Table II).

MMP-2 [2] = target: T2, MMP-2 (Homo sapiens, UniProt P08253); assay: Peptide substrate hydrolysis kinetics, fluorescamine incorporation assay (kcat/Km, selectivity ratio); conditions: MMP-2 substrates
T2 construct: the cDNA encoding the catalytic domain of MMP-2 was generated by PCR; made in house; host or cells: HEK 293 cells
Experimental: as §1, §2, §3, §4

MMP-9 [3] = target: T1, MMP-9; assay: Cleavage of recombinant Eph receptor-Fc fusion proteins, SDS-PAGE; conditions: 1.8 μM fusion protein, 280 nM MMP-9, 4 hours, 37° C.
Experimental: (§5) Recombinant fusion proteins between EphB1, EphB2 and the Fc domain of IgG were purchased from R&D Systems Inc. In these constructs, the extracellular domain of rat EphB1 (amino acid residues 1-538) and mouse EphB2 (amino acid residues 1-548) are fused to the Fc region of human IgG via a short polypeptide linker. The fusion proteins (1.8 μM) were incubated for 4 hours at 37° C. with 280 nM of either MMP-2 or MMP-9. Following incubation, samples were resolved by 10% SDS-PAGE, and samples were visualized by Coomassie staining. The N-terminus of the cleaved Eph B1 was determined by automated Edman degradation of protein blotted to PVDF membranes.
(§6) The Eph B1 and Eph B2 fusion proteins were incubated with equimolar amounts (280 nM) of MMP-2 and MMP-9 for four hours. The extent of hydrolysis was gauged by SDS-PAGE (FIG. 3). […] The extent of cleavage by MMP-9 was far lower (lane 3). […] The site of hydrolysis within Eph B1 was determined by sequencing the N-terminus of one of the released fragments. […] This is one of the predicted cleavage sites in EphB1. These findings illustrate that motifs found to be selective for MMP-2 by substrate phage display, can act as selective substrates within the context of whole proteins. This experiment also illustrates that the three dimensional conformation of the putative cleavage site will also control the extent of hydrolysis.

MMP-2 [4] = target: T2, MMP-2; assay: as above; conditions: 1.8 μM fusion protein, 280 nM MMP-2, 4 hours, 37° C.
Experimental: as §5, §6

[5] = hydrolysis by MMP-9, Ala instead of Leu at P1′

T2 sequence (P08253 110-465 limits assumed): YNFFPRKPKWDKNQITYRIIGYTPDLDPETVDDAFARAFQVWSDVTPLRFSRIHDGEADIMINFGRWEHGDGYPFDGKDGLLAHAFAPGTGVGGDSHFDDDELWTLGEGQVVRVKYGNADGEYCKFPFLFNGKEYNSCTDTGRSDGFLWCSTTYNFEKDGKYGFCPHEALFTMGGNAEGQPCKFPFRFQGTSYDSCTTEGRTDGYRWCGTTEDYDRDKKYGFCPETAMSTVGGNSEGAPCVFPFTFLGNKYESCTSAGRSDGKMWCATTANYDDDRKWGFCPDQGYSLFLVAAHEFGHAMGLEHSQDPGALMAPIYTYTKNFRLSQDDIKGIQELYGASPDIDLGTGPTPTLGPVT
T1 sequence (P14780 94-444 limits assumed): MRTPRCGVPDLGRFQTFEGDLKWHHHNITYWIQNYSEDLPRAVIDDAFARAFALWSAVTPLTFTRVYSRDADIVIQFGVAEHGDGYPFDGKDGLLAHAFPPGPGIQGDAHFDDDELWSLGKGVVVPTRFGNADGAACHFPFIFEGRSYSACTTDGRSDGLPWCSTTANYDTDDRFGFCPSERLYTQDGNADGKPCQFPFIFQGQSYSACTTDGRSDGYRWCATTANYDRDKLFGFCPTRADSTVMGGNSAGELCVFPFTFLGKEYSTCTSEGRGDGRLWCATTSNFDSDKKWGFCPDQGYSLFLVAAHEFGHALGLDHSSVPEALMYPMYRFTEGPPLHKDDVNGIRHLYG

Molecule | selectivity ratio: kcat/Km for MMP-2 divided by kcat/Km for MMP-1 (MMP-2 [2]) | selectivity ratio: kcat/Km for MMP-2 divided by kcat/Km for MMP-7 (MMP-2 [2]) | selectivity ratio: kcat/Km for MMP-2 divided by kcat/Km for MMP-9 (MMP-2 [2]) | further results
AC-SGKIPRTATA-NH2 (Ac-SGKIPRTATA-NH2) [Clone A11m2] | – | – | – | kcat/Km ratio (MMP-9 [1]; hydrolysis by MMP-9): 2,000 M^−1s^−1; effect of substitution on kcat and Km (MMP-9 [1]; [5]): deleterious effects on both kcat and Km; reduction of kcat/Km ratio relative to peptide A11 (MMP-9 [1]; [5]): ~30 fold
A42: MT1-MMP selective substrate peptide from phage clone A42, sequence S-G-R-I-G-F-L-R-T-A (Table V) (RIGFLRT) | – | – | – | selectivity ratio: kcat/Km for MT1-MMP divided by kcat/Km for MMP-9 (MT1-MMP): 54
C9: MMP-2 selective substrate peptide from phage clone C9, sequence R-S-L-S-R-L-T-A (RSLSRLTA) | 52 | 35 | 198 | –
A34: MMP-2 selective substrate peptide from phage clone A34, sequence N-R-Y-S-S-L-T-A (NRYSSLTA) | 24 | 84 | 40 | –
C15: MMP-9 selective substrate peptide from phage clone C15, sequence S-G-K-G-P-R-Q-I-T-A (Table V) (KGPRQITA) | – | – | – | selectivity ratio: kcat/Km for MMP-9 divided by kcat/Km for MMP-1 (MMP-9 [1]): 12; selectivity ratio: kcat/Km for MMP-9 divided by kcat/Km for MMP-7 (MMP-9 [1]): 14
B37: MMP-2 selective substrate peptide from phage clone B37, sequence A-N-I-S-D-L-T-A (ANISDLTA) | 58 | 17 | 71 | –
B74: MMP-2 selective substrate peptide from phage clone B74, sequence E-S-L-A-Y-Y-T-A (ESLAYYTA) | 140 | 354 | 108 | –
B96: MT1-MMP selective substrate peptide from phage clone B96, sequence S-G-L-I-S-H-S-I-T-A (Table V) (LISHSITA) | – | – | – | selectivity ratio: kcat/Km for MT1-MMP divided by kcat/Km for MMP-9 (MT1-MMP): 5
A3: MMP-2 selective substrate peptide from phage clone A3, sequence A-K-P-R-A-L-T-A (AKPRALTA) | 14 | 21 | 2 | –
B49: MMP-2 selective substrate peptide from phage clone B49, sequence L-R-L-A-A-I-T-A (LRLAAITA) | 13 | 6 | 14 | –
A6: MMP-9 selective substrate peptide from phage clone A6, sequence S-G-P-R-A-V-S-T-T-A (Table V) (PRAVST) | – | – | – | selectivity ratio: kcat/Km for MMP-9 divided by kcat/Km for MMP-1 (MMP-9 [1]): 5; selectivity ratio: kcat/Km for MMP-9 divided by kcat/Km for MMP-7 (MMP-9 [1]): 47
A13: MMP-2 selective substrate peptide from phage clone A13, sequence G-A-V-S-W-L-L-T (GAVSWLLT) | 28 | 13 | 15 | –
B149: MT1-MMP selective substrate peptide from phage clone B149, sequence S-G-A-R-Y-R-W-L-T-A (Table V) (ARYRWLTA) | – | – | – | selectivity ratio: kcat/Km for MT1-MMP divided by kcat/Km for MMP-9 (MT1-MMP): 3
A21: MMP-2 selective substrate peptide from phage clone A21, sequence H-M-H-K-A-L-T-A (HMHKALTA) | – | – | 8 | –
B175: MT1-MMP selective substrate peptide from phage clone B175, sequence S-G-R-A-M-H-M-Y-T-A (Table V) (RAMHMYT) | – | – | – | selectivity ratio: kcat/Km for MT1-MMP divided by kcat/Km for MMP-9 (MT1-MMP): 19
A176: MT1-MMP selective substrate peptide from phage clone A176, sequence S-G-R-S-E-N-I-R-T-A (Table V) (RSENIRT) | – | – | – | selectivity ratio: kcat/Km for MT1-MMP divided by kcat/Km for MMP-9 (MT1-MMP): 73
A11: MMP-9 selective substrate peptide from phage clone A11, sequence S-G-K-I-P-R-T-L-T-A (Table V) (KIPRTLTA) | – | – | – | selectivity ratio: kcat/Km for MMP-9 divided by kcat/Km for MMP-1 (MMP-9 [1]): 3; selectivity ratio: kcat/Km for MMP-9 divided by kcat/Km for MMP-7 (MMP-9 [1]): 10
B1 | – | – | – | extent of hydrolysis by MMP-9 (SDS-PAGE) (MMP-9 [3]): far lower; extent of hydrolysis by MMP-2 (SDS-PAGE) (MMP-2 [4]): almost quantitatively cleaved
